We go through eight molecules from patent US20230235075A1 (DYNAMICURE BIOTECHNOLOGY, published 2023).

The target of assay [1] is T1, Human CD93 recombinant protein (Sino Biological Inc, Catalog #12589-H08H) (human, UniProt Q9NPY3 22-580, biotinylated with EZ-LINK NHS-PEG4 biotin in the Octet assays).
T1 construct: also called hCD93; His-tagged human CD93
T1 sequence (looked up): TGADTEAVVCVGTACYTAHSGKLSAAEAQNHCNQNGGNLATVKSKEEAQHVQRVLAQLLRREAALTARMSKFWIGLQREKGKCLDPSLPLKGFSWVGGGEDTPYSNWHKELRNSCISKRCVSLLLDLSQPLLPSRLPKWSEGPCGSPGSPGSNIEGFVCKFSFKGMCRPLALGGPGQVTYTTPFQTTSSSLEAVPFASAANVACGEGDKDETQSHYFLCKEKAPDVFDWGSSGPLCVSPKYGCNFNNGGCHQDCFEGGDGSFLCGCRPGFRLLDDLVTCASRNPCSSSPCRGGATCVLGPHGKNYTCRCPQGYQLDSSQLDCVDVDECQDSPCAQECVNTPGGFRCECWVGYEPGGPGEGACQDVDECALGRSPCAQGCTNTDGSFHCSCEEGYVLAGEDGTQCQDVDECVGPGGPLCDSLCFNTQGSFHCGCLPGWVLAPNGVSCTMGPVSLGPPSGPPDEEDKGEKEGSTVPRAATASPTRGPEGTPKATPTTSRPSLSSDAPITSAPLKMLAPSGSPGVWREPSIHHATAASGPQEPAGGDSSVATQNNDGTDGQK
Put plainly: ELISA, His-tagged human CD93 coated at 1 µg/mL. The method, then: 17B10 antibody produced by hybridoma (17B10-Hyb in FIG. 33) was compared to recombinant parental 17B10-hFc (17B10-hIgG1 in FIG. 33) and humanized 17B10-mFc (h17B10-H3L3 in FIG. 33) to determine the binding to human CD93. His-tagged human CD93 was coated onto a 96 well plate at 1 μg/mL in 1×PBS overnight at 4° C. The plate was washed with ELISA wash buffer (Boston BioProduct, Inc.) and the wells were blocked with ELISA blocking buffer for 1 hour at 37° C. Purified 17B10 antibodies were serially diluted in ELISA blocking buffer (Boston BioProduct, Inc.) and incubated on the receptor for 1 hour at 37° C. The plate was washed with ELISA wash Buffer. HRP conjugated Anti-mouse Fc was diluted in ELISA blocking buffer and added to the wells containing the hybridoma produced 17B10. HRP conjugated anti-human Fc was added to the well containing the recombinant 17B10 antibodies for 1 hour at 37° C. The plate was washed with ELISA wash Buffer. HRP substrate was added for indirect detection of the antibodies binding to CD93.

Assay [2] concerns the target T2, Human CD93 on the cell surface (human CD93 expressing CHO cells; HUVEC, U937 and KG1a cells) (human, UniProt Q9NPY3 22-652).
T2 construct: whole, on cells; also called hCD93 CHO cells; CHO-hCD93
T2 sequence (looked up): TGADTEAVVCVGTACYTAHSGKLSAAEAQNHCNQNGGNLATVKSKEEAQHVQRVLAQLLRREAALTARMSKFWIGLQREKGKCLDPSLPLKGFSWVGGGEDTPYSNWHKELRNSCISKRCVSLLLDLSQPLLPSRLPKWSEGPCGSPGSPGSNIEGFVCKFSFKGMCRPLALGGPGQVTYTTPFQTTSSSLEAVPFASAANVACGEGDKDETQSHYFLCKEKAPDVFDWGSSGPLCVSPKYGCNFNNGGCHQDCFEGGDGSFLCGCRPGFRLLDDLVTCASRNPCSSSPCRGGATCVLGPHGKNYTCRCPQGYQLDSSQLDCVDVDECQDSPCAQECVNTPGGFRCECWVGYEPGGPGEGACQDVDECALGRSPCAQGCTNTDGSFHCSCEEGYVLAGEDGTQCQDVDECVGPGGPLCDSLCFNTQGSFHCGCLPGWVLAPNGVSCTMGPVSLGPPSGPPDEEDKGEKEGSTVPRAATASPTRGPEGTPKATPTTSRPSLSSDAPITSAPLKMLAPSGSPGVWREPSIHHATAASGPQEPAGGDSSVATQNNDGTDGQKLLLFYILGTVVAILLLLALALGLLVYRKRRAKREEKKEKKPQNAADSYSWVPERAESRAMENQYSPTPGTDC
Briefly: summary table, column 'Binding' (assay not given).

The target of assay [3] is T2, Human CD93 on the cell surface (human …). Put plainly: flow cytometry, primary HUVEC cells, with and without human serum. Here is the method:
Recombinant parental anti-CD93 antibodies were evaluated for their ability to bind to HUVEC cells in the presence or absence of human serum. The 16E4, 7F3, 16A1, and 17B10 sequences obtained from the hybridoma cells were expressed recombinantly with a human CH1 domain and mouse IgG1 CH2 and CH3 Fc domains. Antibodies were purified using Protein G Sepharose. The resulting antibodies were tested for its binding capacity to a variety of cells that express CD93. […] Cells were quenched with media then counted. Cells were resuspended in FACS buffer (ice cold PBS with 0.5% BSA) and human serum was added to 20% (10% final volume) and put on ice for approximately 20 minutes. 5×10⁴ cells were seeded per well in 100 μL media and incubated with serial diluted anti-CD93 antibodies in 100 μL on ice for 2 hours. Cells were then washed by spinning cells at 1200 rpm for 5 min. Media was discarded and cells were resuspended in 200 μL ice cold FACS buffer. The wash step was repeated and cells were resuspended in 100 μL of secondary antibody, AlexaFluor647 conjugated anti-human IgG or anti-mouse IgG antibodies (Jackson ImmunoResearch), diluted 1:500 in FACS buffer. Plates were blocked from light and incubated 1 hour at 4° C. […] Samples were stored at 4° C. covered in foil, then were acquired in NovoCyte Flow Cytometer and analyzed by NovoExpress software.
On the technique in general: Flow cytometry measures light scatter and fluorescence of single cells or particles in a stream.

Assay [4] shares this target. Briefly: FACS, CHO cells overexpressing human CD93.
The target in assay [5] is T1, Human CD93 recombinant protein (Sino …). Briefly: Octet epitope binning on biotinylated human CD93, antibody 10 µg/ml. Here is the method:
Anti-CD93 antibody epitope bins were determined using Octet QKe (Fortebio). Human CD93 recombinant protein (Sino Biological Inc, Catalog #12589-H08H) were biotinylated using EZ-LINK NHS-PEG4 biotin (Thermo Fisher Scientific). Streptavidin biosensors tips (Fortebio) were used to capture biotinylated human CD93 protein (300 seconds in 5 μg/ml). The baseline was stabilized for 60 seconds in 1× kinetics buffer (Fortebio) before primary anti-CD93 antibodies (10 μg/ml) were allowed to associate for 300 seconds with captured protein. A panel of secondary anti-CD93 antibodies (10 μg/ml) were then allowed to associate with the antigen and primary antibody complex for additional 300 seconds. Signals were recorded for each binding event and data analysis was performed on ForteBio Data Analysis HT 11.1 software.
In general terms: Biolayer interferometry detects binding as a change in optical thickness at a sensor tip.

The target is the same in assay [6]. Put plainly: BLI (Octet QKe), biotinylated CD93 on streptavidin sensors.
The target in assay [7] is T2, Human CD93 on the cell surface (human …). Briefly: FACS, human CD93 expressing CHO cells, serially diluted antibody. The method, then: Binding of anti-CD93 antibodies 7F3 and 16E4 to cell surface expressing human CD93 CHO cells was determined by fluorescence activated cell sorting (FACS) assay. Human CD93 expressing CHO cells were detached by incubation with TrypLE reagents (Thermo Fisher), which preserves the integrity of CD93 on the cell surface. Then the cells were incubated with serially diluted anti-CD93 antibodies for 30 minutes in 4° C. After washing by FACS buffer, the cells were incubated with Alexa Fluor 647 conjugated anti-human IgG (Jackson ImmunoResearch) for 30 minutes in 4° C. After washing by FACS buffer twice, the samples were acquired in NovoCyte Flow Cytometer and analyzed by NovoExpress software.

B1: 17B10 (hybridoma) (antibody, V domains shown)
VH: QVQLQQSGPELVKPGASVKISCKASGYAFSSYWLNWVKQRPGKGLEWFGRIYPGDGDTDYNGKFKGKATLTADKSSSTAYMQLRSLTSEDSAVYFCVRGDGYWAMDYWGQGTSVTVSS
VL: DIVMTQAAFSNPVTLGTSASISCRFSKSLLHSNGITYLYWYLQKPGQSPQLLIYQMSNLASGVPDRFSSSGSGTDFTLRISRVEAEDVGVYYCAQNLELPWTFGGGTKLEIK
notes: Mouse hybridoma monoclonal antibody, purified over Protein G
For B1, the binding result in assay [1] and in assay [2] was “binds” in each case.

B2: Recombinant parental 17B10 (human CH1 domain, mouse IgG1 CH2 and CH3 Fc domains) (antibody, V domains shown)
VH: QVQLQQSGPELVKPGASVKISCKASGYAFSSYWLNWVKQRPGKGLEWFGRIYPGDGDTDYNGKFKGKATLTADKSSSTAYMQLRSLTSEDSAVYFCVRGDGYWAMDYWGQGTSVTVSS
VL: DIVMTQAAFSNPVTLGTSASISCRFSKSLLHSNGITYLYWYLQKPGQSPQLLIYQMSNLASGVPDRFSSSGSGTDFTLRISRVEAEDVGVYYCAQNLELPWTFGGGTKLEIK
As for B2, the binding result in assay [3] is “binds”.

B3: recombinant parental 17B10-hFc (antibody, human IgG1, V domains shown)
VH: QVQLQQSGPELVKPGASVKISCKASGYAFSSYWLNWVKQRPGKGLEWFGRIYPGDGDTDYNGKFKGKATLTADKSSSTAYMQLRSLTSEDSAVYFCVRGDGYWAMDYWGQGTSVTVSS
VL: DIVMTQAAFSNPVTLGTSASISCRFSKSLLHSNGITYLYWYLQKPGQSPQLLIYQMSNLASGVPDRFSSSGSGTDFTLRISRVEAEDVGVYYCAQNLELPWTFGGGTKLEIK
notes: also called 17B10-hIgG1; recombinant parental 17B10 with the human Fc
As for B3, in assay [1], the binding result is listed as “binds”.

B4: Humanized 17B10 (VH3VL3, i.e., H3L3) (antibody, mouse IgG1, V domains shown)
VH: QVQLVQSGPEVKKPGESLKISCKASGYAFSSYWLNWVRQMPGKGLEWMGRIYPGDGDTDYNGKFKGQVTISADKSSGTAYLQLSSLKASDTAVYFCVRGDGYWAMDYWGQGTLVTVSS
VL: DIVMTQSPDSLAVSLGERATINCRFSKSLLHSNGITYLYWYQQKPGQPPKLLIYQMSNLASGVPDRFSGSGSGTDFTLTISSLQAEDVAVYYCAQNLELPWTFGGGTKLEIK
notes: also called h17B10-H3L3; humanized 17B10-mFc
Regarding B4, the binding result in assay [1] and in assay [4] was “binds” throughout.

B5: 16B6 (antibody, V domains shown)
VH: QVQLQQSGPELVKPGASVKISCKASGYAFSRSWMNWVKQRPGKGLEWIGWIYPGDGDTNYNGKFKGKATLTADKSSSTAYMQLSSLTSEDSAAYFCARSATLPYWYFDVWGAGTTVTVSS
VL: DIKMTQSPSSMYASLGERVTITCKASQDIKSYLSWYQQKPWKSPKTLIYYATNLADGVPSRFSGSGSGQDYSLTISSLGSDDTATYYCLQHVESPWTFGGGTKLEIK
notes: Mouse hybridoma monoclonal antibody
Regarding B5, the binding result in assay [5] and in assay [2] was “binds” each time.

B6: 10B1 (antibody, V domains shown)
VH: QVQLKQSGPGLVQPSQSLSITCTVSDFSLSSFGVNWVRQPPGKGLEWLGVIWSGGSTDYNVAFISRLSISKDNSKSQVFFKMNNLQADDTAIYYCARNWRYDGYFYAMDYWGQGTSVTVSS
VL: DIVMTQSQKFMSTSTGDRVSVTCKASQNVGTNVAWYQQKPGQSPKALIYSASYRFIGVPDRFTGSGSGTDFTLTITNVQSEDLAEYFCQQYNRNPITFGSGTKLEIK
notes: Mouse hybridoma monoclonal antibody; also called 10B1 mAb
B6: the binding result in assay [2] and in assay [6] was “binds” in each case.

B7: 7F3-hIgG1 (antibody, V domains shown)
VH: QVQLQQSGADLVRPGASVKLSCKASGYTFTDYEMHWVKQTPVYGLEWIGGIDPETGDTAYNQNFKGKATLTADKSSSAAYMELRSLTSEDSAVYYCTNYGNLYYYAMDYWGQGTSVTVSS
VL: ENVLTQSPAIMSASPGEKVTMTCRASSSVSSSYLHWYQQKSGASPKLWIYSTSNLAFGVPARFSGSGSGTSYSLTISSVEAEDAATYYCQQYSGYPLTFGSGTKLEIK
notes: the same paragraph also calls it 'humanized'; also called recombinant 7F3 antibody; recombinant chimeric 7F3
The EC50 is the concentration that produces a half-maximal response. Lower therefore signals a more potent agent. In assay [7], B7 returned an EC50 of 0.4 nM.

B8: 16E4-hIgG1 (antibody, V domains shown)
VH: QVQLQQPGAELVKPGASVKLSCKASGYTFTSYWMHWVKQRPGQGLEWIGEIDPSASYTYYNQKFKGKATLTVDKSSSTAYMQLSSLTSEDSAVYYCARSVYYGNKYFDVWGAGTTVTVSS
VL: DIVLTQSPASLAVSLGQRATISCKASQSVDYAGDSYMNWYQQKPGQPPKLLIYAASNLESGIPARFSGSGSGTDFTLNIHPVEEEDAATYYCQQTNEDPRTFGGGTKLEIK
notes: the same paragraph also calls it 'humanized'; also called recombinant 16E4; recombinant chimeric 16E4
B8: in assay [7], the EC50 was found to be 0.24 nM.
